Test results from the supplement of paper PMC10065799, “High-throughput profiling of sequence recognition by tyrosine kinases and SH2 domains using bacterial peptide display” (eLife, 2023).

Tests used:
Fes = Fes (UniProt P07332); assay: phosphorylation enrichment, bacterial display (enrichment ratio); higher = better substrate or ligand; peptides without Tyr show the background
EPHB2 = EPHB2 (UniProt P29323); assay: as above
AncSZ = assay: as above
Fer (mouse) = assay: as above
MERTK = MERTK (UniProt Q12866); assay: as above
c-Src = assay: as above
FGFR1 = FGFR1 (UniProt P11362); assay: as above
Fyn = Fyn (UniProt P06241); assay: as above
c-Abl (mouse) = assay: as above
FGFR3 = FGFR3 (UniProt P22607); assay: as above
FGFR3, sequence (P22607 whole entry, looked up): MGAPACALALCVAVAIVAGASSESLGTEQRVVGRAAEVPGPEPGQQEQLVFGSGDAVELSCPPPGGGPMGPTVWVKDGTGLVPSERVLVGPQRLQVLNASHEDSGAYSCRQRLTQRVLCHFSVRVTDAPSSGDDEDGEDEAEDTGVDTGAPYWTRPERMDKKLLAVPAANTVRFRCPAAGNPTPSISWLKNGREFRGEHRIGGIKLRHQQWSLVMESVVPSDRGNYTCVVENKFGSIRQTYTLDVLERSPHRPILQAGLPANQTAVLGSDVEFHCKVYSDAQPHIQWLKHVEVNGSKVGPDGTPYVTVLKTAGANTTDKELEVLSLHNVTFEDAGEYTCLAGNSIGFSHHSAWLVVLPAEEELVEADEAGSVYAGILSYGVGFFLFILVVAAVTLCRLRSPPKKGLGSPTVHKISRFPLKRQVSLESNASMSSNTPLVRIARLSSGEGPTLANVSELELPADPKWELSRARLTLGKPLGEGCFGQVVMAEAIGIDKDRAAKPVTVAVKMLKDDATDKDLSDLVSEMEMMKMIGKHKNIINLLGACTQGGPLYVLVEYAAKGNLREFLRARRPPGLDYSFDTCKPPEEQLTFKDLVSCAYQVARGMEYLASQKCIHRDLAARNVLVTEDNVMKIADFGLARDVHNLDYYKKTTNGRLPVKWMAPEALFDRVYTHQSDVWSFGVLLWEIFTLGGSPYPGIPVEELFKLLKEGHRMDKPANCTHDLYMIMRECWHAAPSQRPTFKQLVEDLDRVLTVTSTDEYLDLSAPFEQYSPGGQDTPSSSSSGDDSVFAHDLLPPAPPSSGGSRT

Hck = Hck (UniProt P08631); assay: as above
Hck, sequence (P08631 whole entry, looked up): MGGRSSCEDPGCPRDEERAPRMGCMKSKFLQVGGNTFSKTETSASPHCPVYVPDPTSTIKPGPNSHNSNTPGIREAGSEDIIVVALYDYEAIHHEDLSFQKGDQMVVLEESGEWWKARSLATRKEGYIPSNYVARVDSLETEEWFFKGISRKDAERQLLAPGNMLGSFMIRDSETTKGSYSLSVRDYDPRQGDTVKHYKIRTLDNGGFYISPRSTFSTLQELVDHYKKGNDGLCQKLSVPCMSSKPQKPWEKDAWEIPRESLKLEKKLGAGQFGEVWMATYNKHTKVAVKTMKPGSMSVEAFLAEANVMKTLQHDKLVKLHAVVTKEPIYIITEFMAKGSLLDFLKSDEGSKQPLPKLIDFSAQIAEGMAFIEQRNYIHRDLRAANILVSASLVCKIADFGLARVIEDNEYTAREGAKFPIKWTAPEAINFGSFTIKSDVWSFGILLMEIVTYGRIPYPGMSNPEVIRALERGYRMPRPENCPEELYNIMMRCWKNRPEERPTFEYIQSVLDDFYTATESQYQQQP

Jak2 = Jak2 (UniProt O60674); assay: as above
Jak2, sequence (O60674 whole entry, looked up): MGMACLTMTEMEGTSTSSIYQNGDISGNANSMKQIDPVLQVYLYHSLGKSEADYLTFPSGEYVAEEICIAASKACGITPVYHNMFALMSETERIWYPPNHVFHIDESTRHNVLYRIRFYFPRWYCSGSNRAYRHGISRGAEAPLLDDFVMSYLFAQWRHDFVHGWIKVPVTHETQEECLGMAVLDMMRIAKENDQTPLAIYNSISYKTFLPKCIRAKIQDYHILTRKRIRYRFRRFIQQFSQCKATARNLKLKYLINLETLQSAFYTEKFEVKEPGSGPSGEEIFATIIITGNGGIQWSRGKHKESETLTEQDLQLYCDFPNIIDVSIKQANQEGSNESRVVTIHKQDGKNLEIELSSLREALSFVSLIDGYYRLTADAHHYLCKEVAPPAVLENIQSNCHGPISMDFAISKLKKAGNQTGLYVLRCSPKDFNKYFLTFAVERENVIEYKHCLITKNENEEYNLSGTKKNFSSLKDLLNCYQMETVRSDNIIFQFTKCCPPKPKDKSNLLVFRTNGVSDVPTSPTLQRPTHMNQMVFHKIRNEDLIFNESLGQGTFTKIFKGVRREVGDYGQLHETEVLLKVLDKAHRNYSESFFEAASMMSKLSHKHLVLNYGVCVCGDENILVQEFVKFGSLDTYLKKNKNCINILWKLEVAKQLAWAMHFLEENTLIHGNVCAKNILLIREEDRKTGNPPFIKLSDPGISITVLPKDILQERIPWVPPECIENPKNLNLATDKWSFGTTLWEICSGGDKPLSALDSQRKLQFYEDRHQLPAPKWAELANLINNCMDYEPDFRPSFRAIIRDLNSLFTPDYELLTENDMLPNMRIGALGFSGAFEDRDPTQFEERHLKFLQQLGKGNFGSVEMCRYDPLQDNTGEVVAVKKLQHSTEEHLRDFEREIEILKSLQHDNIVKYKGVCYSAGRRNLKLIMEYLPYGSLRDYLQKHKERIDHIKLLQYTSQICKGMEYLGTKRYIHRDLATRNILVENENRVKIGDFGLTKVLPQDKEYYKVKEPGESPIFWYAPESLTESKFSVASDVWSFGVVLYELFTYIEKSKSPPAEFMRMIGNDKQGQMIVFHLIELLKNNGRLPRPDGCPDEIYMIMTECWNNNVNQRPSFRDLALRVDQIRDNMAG

EPHB1 = EPHB1 (UniProt P54762); assay: as above
Grb2 SH2 = Grb2 SH2 (UniProt P62993); assay: SH2 binding enrichment of the phosphorylated peptide, bacterial display (enrichment ratio); higher = better substrate or ligand; peptides without Tyr show the background
Grb2 SH2, sequence (P62993 whole entry, looked up): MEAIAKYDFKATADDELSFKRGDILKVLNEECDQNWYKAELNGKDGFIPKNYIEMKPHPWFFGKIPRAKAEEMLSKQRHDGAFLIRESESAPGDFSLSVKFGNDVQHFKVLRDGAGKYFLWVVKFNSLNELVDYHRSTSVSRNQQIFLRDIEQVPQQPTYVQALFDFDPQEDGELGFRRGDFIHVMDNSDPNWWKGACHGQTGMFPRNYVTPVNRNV

c-Src SH2 = assay: as above
SHP2-C SH2 = assay: as above
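Throughout, for SH2 binding enrichment of the phosphorylated peptide, bacterial display: peptide library displayed on the E. coli surface as eCPX fusions, selected cells deep-sequenced, score is each peptide's frequency after selection divided by its frequency in the input.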
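Throughout, for phosphorylation enrichment, bacterial display: 11-residue human phosphosite peptides and single-mutation variants displayed on the E. coli surface, counted by deep sequencing, each peptide's frequency after selection divided by its frequency in the unselected input library; frequency after pTyr selection over input frequency; kinase dosed for 20-30% of maximal phosphorylation in three min.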

EPHB2, sequence (P29323 whole entry, looked up): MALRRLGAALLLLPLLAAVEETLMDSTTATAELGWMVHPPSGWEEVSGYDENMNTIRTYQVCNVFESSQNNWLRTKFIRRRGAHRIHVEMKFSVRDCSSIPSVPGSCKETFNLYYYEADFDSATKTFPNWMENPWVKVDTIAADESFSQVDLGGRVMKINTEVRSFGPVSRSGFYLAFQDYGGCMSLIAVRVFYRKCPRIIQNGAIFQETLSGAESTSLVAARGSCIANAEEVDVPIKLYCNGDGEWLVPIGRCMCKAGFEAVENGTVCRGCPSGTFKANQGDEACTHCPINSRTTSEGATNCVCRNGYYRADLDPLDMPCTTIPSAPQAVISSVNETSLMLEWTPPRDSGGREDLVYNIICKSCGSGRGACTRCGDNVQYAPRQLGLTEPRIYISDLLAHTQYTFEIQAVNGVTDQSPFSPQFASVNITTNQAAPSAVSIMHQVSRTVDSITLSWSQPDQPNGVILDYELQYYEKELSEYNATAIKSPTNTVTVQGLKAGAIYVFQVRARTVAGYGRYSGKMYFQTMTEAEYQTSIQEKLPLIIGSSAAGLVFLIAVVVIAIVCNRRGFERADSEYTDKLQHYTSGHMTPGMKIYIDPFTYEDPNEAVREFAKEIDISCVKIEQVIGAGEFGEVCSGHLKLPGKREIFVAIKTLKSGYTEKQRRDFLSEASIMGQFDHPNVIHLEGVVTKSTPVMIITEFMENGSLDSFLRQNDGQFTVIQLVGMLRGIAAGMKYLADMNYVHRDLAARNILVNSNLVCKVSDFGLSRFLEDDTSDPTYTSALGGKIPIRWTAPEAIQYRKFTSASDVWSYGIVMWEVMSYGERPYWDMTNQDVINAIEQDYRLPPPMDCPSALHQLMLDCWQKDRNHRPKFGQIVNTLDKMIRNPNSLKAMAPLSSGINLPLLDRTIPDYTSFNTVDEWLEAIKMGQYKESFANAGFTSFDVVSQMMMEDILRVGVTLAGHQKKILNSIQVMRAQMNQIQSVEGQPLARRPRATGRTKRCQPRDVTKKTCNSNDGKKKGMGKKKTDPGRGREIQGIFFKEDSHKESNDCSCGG
Fes, sequence (P07332 whole entry, looked up): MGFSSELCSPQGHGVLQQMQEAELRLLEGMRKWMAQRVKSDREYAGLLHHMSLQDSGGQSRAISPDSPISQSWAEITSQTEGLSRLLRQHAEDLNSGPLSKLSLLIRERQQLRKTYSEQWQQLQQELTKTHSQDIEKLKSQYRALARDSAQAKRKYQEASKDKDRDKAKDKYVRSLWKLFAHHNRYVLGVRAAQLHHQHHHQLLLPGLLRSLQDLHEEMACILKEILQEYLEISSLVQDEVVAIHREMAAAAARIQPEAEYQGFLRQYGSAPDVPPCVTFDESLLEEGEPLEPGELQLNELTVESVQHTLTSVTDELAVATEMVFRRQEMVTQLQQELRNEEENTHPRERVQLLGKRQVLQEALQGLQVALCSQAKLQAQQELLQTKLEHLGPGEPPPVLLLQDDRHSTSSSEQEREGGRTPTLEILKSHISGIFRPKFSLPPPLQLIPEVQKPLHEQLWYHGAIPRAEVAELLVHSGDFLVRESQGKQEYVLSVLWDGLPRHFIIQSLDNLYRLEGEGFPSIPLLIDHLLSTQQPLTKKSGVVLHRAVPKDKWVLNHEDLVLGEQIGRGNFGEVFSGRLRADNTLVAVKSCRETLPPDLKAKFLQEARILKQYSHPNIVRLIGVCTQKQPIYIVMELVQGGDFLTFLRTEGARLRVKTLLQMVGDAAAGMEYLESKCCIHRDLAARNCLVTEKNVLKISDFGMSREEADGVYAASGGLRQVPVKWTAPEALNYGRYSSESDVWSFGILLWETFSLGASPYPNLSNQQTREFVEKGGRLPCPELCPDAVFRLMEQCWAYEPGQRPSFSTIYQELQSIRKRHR

Sequence | phosphorylation enrichment (Fes) | phosphorylation enrichment (EPHB2) | phosphorylation enrichment (AncSZ) | phosphorylation enrichment (Fer (mouse)) | phosphorylation enrichment (MERTK) | phosphorylation enrichment (c-Src) | phosphorylation enrichment (FGFR1) | phosphorylation enrichment (Fyn) | phosphorylation enrichment (c-Abl (mouse)) | phosphorylation enrichment (FGFR3) | phosphorylation enrichment (Hck) | phosphorylation enrichment (Jak2) | phosphorylation enrichment (EPHB1) | SH2 binding enrichment (Grb2 SH2) | SH2 binding enrichment (c-Src SH2) | SH2 binding enrichment (SHP2-C SH2)
TESNNYIYTTL [FAM83B_Y637_K640T] | 0.898 | 1.15 | 1.03 | 2.64 | 5.09 | 7.09 | 2.74 | 8.53 | 0.692 | 1.92 | 7.3 | 0.774 | 2.3 | 0.752 | 0.579 | 0.8
TFEFRYLEDRD [CNOT3_Y746_YF] | 1.37 | 0.756 | 1.35 | 0.606 | 0.398 | 0.591 | 0.599 | 0.686 | 0.762 | 0.826 | 0.67 | 1.17 | 0.676 | 1.08 | 0.584 | 0.96
TFLRTYTDTMQ [TSPAN7_Y124_A127T] | 0.76 | 0.491 | 0.68 | 0.501 | 0.391 | 0.425 | 0.486 | 0.464 | 0.69 | 0.497 | 0.403 | 0.687 | 0.527 | 0.995 | 0.591 | 0.454
TGDFGYRAPGY [TNS2_Y668] | 0.546 | 0.413 | 0.545 | 0.332 | 0.31 | 0.441 | 0.415 | 0.477 | 0.533 | 0.435 | 0.376 | 0.557 | 0.387 | 0.747 | 0.425 | 0.619
TGVWDYIHVVD [GALE_Y241_R239W] | 1.43 | 0.588 | 1.43 | 0.493 | 0.433 | 0.471 | 0.684 | 0.47 | 0.966 | 0.916 | 0.566 | 1.39 | 0.756 | 0.746 | 0.383 | 0.552
TGYRPYVCPFD [YY1_Y383_D380Y] | 1.33 | 0.706 | 1.16 | 0.574 | 0.551 | 0.412 | 0.621 | 0.583 | 0.808 | 0.951 | 0.525 | 1.04 | 0.753 | 0.797 | 0.611 | 0.552
TKEPKYEGAGS [KIAA1210_Y1615] | 0.542 | 0.337 | 0.614 | 0.378 | 0.326 | 0.315 | 0.403 | 0.339 | 0.496 | 0.385 | 0.372 | 0.5 | 0.368 | 0.863 | 0.597 | 0.719
TKVVHYRKWIK [KLK2_Y249] | 0.614 | 0.318 | 0.632 | 0.373 | 0.379 | 0.595 | 0.375 | 0.382 | 0.462 | 0.432 | 0.443 | 0.415 | 0.483 | 1.12 | 0.558 | 0.912
TLLERYGMTEI [ACSF3_Y355] | 0.863 | 0.516 | 0.621 | 0.42 | 0.342 | 0.418 | 0.404 | 0.387 | 0.516 | 0.564 | 0.392 | 0.565 | 0.415 | 0.907 | 0.462 | 0.866
TLNVRYESVQA [CEACAM7_Y236] | 0.745 | 0.415 | 0.757 | 0.59 | 0.371 | 0.415 | 0.451 | 0.434 | 0.504 | 0.617 | 0.487 | 0.755 | 0.44 | 0.9 | 7.18 | 1.52
TLQNMYGCDVG [HLA-B_Y123_S121N] | 1.2 | 0.581 | 0.886 | 0.64 | 0.446 | 0.601 | 0.545 | 0.586 | 0.756 | 0.669 | 0.625 | 0.989 | 0.702 | 1.01 | 0.643 | 0.765
TLSGIYQYNIA [FOXL2_Y81_I84N] | 0.963 | 1.15 | 1.32 | 13.1 | 9.86 | 6.54 | 0.752 | 4.61 | 1.06 | 0.701 | 4.79 | 0.951 | 1.82 | 0.817 | 1.33 | 1.07
TNDRLYLRSLE [MTM1_Y71_Y68D] | 0.978 | 0.452 | 0.881 | 0.411 | 0.376 | 0.535 | 0.438 | 0.458 | 0.651 | 0.503 | 0.443 | 0.937 | 0.514 | 0.855 | 0.616 | 0.6
TNRSFYFKPSL [NUP153_Y382_V381F] | 0.993 | 0.555 | 0.988 | 0.406 | 2.6 | 0.491 | 0.954 | 0.428 | 1.35 | 0.63 | 0.533 | 3.54 | 0.646 | 1.04 | 0.806 | 0.774
TPSGNYVACGG [GNB1_Y111_A106T] | 0.8 | 0.704 | 0.614 | 0.415 | 0.516 | 0.783 | 0.555 | 0.447 | 0.677 | 0.436 | 0.488 | 0.602 | 0.771 | 1.14 | 1.73 | 1.25
TPTYPYLLPKS [PLD2_Y580] | 0.599 | 0.349 | 0.527 | 0.286 | 0.564 | 0.581 | 0.63 | 0.452 | 0.564 | 0.505 | 0.441 | 0.639 | 0.29 | 0.768 | 0.62 | 0.899
TRSFKCLLLSM [NF1_Y491_Y491C_YF] | 1.08 | 0.581 | 0.969 | 0.496 | 0.444 | 0.4 | 0.531 | 0.474 | 0.713 | 0.609 | 0.492 | 1.09 | 0.551 | 1.11 | 0.912 | 0.787
